Results reported in IntAct's records for PubMed 31515488.

B1: Serine/threonine-protein kinase PAK 5 (Homo sapiens), Q9P286 (parent)
chain: MFGKKKKKIEISGPSNFEHRVHTGFDPQEQKFTGLPQQWHSLLADTANRPKPMVDPSCITPIQLAPMKTIVRGNKPCKETSINGLLEDFDNISVTRSNSLRKESPPTPDQGASSHGPGHAEENGFITFSQYSSESDTTADYTTEKYREKSLYGDDLDPYYRGSHAAKQNGHVMKMKHGEAYYSEVKPLKSDFARFSADYHSHLDSLSKPSEYSDLKWEYQRASSSSPLDYSFQFTPSRTAGTSGCSKESLAYSESEWGPSLDDYDRRPKSSYLNQTSPQPTMRQRSRSGSGLQEPMMPFGASAFKTHPQGHSYNSYTYPRLSEPTMCIPKVDYDRAQMVLSPPLSGSDTYPRGPAKLPQSQSKSGYSSSSHQYPSGYHKATLYHHPSLQSSSQYISTASYLSSLSLSSSTYPPPSWGSSSDQQPSRVSHEQFRAALQLVVSPGDPREYLANFIKIGEGSTGIVCIATEKHTGKQVAVKKMDLRKQQRRELLFNEVVIMRDYHHDNVVDMYSSYLVGDELWVVMEFLEGGALTDIVTHTRMNEEQIATVCLSVLRALSYLHNQGVIHRDIKSDSILLTSDGRIKLSDFGFCAQVSKEVPKRKSLVGTPYWMAPEVISRLPYGTEVDIWSLGIMVIEMIDGEPPYFNEPPLQAMRRIRDSLPPRVKDLHKVSSVLRGFLDLMLVREPSQRATAQELLGHPFLKLAGPPSCIVPLMRQYRHH
partner: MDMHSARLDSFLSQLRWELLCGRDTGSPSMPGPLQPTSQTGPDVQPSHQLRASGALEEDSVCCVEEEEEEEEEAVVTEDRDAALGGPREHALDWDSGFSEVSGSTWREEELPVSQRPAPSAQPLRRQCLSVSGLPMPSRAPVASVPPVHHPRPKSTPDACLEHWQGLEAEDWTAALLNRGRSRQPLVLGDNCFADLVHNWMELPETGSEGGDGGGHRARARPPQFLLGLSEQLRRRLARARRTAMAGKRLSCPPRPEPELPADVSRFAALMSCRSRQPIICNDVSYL
B2: Protein unc-45 homolog A (Homo sapiens), Q9H3U1 (parent)
chain: MTVSGPGTPEPRPATPGASSVEQLRKEGNELFKCGDYGGALAAYTQALGLDATPQDQAVLHRNRAACHLKLEDYDKAETEASKAIEKDGGDVKALYRRSQALEKLGRLDQAVLDLQRCVSLEPKNKVFQEALRNIGGQIQEKVRYMSSTDAKVEQMFQILLDPEEKGTEKKQKASQNLVVLAREDAGAEKIFRSNGVQLLQRLLDMGETDLMLAALRTLVGICSEHQSRTVATLSILGTRRVVSILGVESQAVSLAACHLLQVMFDALKEGVKKGFRGKEGAIIVDPARELKVLISNLLDLLTEVGVSGQGRDNALTLLIKAVPRKSLKDPNNSLTLWVIDQGLKKILEVGGSLQDPPGELAVTANSRMSASILLSKLFDDLKCDAERENFHRLCENYIKSWFEGQGLAGKLRAIQTVSCLLQGPCDAGNRALELSGVMESVIALCASEQEEEQLVAVEALIHAAGKAKRASFITANGVSLLKDLYKCSEKDSIRIRALVGLCKLGSAGGTDFSMKQFAEGSTLKLAKQCRKWLCNDQIDAGTRRWAVEGLAYLTFDADVKEEFVEDAAALKALFQLSRLEERSVLFAVASALVNCTNSYDYEEPDPKMVELAKYAKQHVPEQHPKDKPSFVRARVKKLLAAGVVSAMVCMVKTESPVLTSSCRELLSRVFLALVEEVEDRGTVVAQGGGRALIPLALEGTDVGQTKAAQALAKLTITSNPEMTFPGERIYEVVRPLVSLLHLNCSGLQNFEALMALTNLAGISERLRQKILKEKAVPMIEGYMFEEHEMIRRAATECMCNLAMSKEVQDLFEAQGNDRLKLLVLYSGEDDELLQRAAAGGLAMLTSMRPTLCSRIPQVTTHWLEILQALLLSSNQELQHRGAVVVLNMVEASREIASTLMESEMMEILSVLAKGDHSPVTRAAAACLDKAVEYGLIQPNQDGE
partner: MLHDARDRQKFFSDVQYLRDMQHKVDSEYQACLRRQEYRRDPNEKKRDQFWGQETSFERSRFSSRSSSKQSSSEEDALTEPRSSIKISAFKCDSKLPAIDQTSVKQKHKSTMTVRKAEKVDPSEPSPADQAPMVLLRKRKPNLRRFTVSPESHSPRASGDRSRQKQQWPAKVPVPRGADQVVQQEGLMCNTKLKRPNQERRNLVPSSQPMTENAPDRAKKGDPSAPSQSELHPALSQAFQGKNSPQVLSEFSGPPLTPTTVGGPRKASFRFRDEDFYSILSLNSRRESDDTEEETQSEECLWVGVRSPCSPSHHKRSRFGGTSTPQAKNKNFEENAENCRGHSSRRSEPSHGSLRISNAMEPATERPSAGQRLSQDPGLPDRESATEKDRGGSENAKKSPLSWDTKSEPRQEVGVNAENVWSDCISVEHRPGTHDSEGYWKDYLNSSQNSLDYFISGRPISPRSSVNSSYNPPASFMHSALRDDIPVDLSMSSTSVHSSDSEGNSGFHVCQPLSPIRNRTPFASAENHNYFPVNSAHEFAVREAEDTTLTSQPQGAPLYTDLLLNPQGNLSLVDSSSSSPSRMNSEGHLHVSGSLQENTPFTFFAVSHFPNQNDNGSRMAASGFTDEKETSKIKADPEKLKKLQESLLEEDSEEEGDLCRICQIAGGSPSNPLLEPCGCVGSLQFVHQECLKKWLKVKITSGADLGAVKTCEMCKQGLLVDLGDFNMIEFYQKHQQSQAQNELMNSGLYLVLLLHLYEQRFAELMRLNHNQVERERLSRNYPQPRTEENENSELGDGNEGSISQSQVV
B3: Protein LDOC1 (Homo sapiens), O95751 (parent)
chain: MVDELVLLLHALLMRHRALSIENSQLMEQLRLLVCERASLLRQVRPPSCPVPFPETFNGESSRLPEFIVQTASYMLVNENRFCNDAMKVAFLISLLTGEAEEWVVPYIEMDSPILGDYRAFLDEMKQCFGWDDDEDDDDEEEEDDY
partner: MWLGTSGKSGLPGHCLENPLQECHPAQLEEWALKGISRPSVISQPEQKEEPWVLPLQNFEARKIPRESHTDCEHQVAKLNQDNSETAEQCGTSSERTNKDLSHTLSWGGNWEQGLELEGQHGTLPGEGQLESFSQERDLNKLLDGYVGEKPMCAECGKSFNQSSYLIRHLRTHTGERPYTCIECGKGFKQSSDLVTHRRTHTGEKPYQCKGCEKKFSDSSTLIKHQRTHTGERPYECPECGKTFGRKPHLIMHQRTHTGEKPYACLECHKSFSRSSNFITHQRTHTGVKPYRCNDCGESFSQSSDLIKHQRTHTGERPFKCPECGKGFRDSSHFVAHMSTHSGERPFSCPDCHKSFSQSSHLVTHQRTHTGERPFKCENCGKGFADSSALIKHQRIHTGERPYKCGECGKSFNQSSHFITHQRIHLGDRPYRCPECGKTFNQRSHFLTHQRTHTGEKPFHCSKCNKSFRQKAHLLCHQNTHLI
B4: E3 ubiquitin-protein ligase LNX (Homo sapiens), Q8TBB1 (parent)
chain: MNQPESANDPEPLCAVCGQAHSLEENHFYSYPEEVDDDLICHICLQALLDPLDTPCGHTYCTLCLTNFLVEKDFCPMDRKPLVLQHCKKSSILVNKLLNKLLVTCPFREHCTQVLQRCDLEHHFQTSCKGASHYGLTKDRKRRSQDGCPDGCASLTATAPSPEVSAAATISLMTDEPGLDNPAYVSSAEDGQPAISPVDSGRSNRTRARPFERSTIRSRSFKKINRALSVLRRTKSGSAVANHADQGRENSENTTAPEVFPRLYHLIPDGEITSIKINRVDPSESLSIRLVGGSETPLVHIIIQHIYRDGVIARDGRLLPGDIILKVNGMDISNVPHNYAVRLLRQPCQVLWLTVMREQKFRSRNNGQAPDAYRPRDDSFHVILNKSSPEEQLGIKLVRKVDEPGVFIFNVLDGGVAYRHGQLEENDRVLAINGHDLRYGSPESAAHLIQASERRVHLVVSRQVRQRSPDIFQEAGWNSNGSWSPGPGERSNTPKPLHPTITCHEKVVNIQKDPGESLGMTVAGGASHREWDLPIYVISVEPGGVISRDGRIKTGDILLNVDGVELTEVSRSEAVALLKRTSSSIVLKALEVKEYEPQEDCSSPAALDSNHNMAPPSDWSPSWVMWLELPRCLYNCKDIVLRRNTAGSLGFCIVGGYEEYNGNKPFFIKSIVEGTPAYNDGRIRCGDILLAVNGRSTSGMIHACLARLLKELKGRITLTIVSWPGTFL
partner: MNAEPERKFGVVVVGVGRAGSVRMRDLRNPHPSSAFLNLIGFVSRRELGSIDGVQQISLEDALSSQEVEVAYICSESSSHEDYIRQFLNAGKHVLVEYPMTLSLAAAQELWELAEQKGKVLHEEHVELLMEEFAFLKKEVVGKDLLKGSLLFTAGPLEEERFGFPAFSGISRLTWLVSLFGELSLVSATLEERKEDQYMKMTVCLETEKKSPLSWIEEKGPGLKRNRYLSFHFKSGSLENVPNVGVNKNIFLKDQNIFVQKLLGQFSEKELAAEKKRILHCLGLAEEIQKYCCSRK
B5: Geminin (Homo sapiens), O75496 (parent)
chain: MNPSMKQKQEEIKENIKNSSVPRRTLKMIQPSASGSLVGRENELSAGLSKRKHRNDHLTSTTSSPGVIVPESSENKNLGGVTQESFDLMIKENPSSQYWKEVAEKRRKALYEALKENEKLHKEIEQKDNEIARLKKENKELAEVAEHVQYMAELIERLNGEPLDNFESLDNQEFDSEEETVEDSLVEDSEIGTCAEGTVSSSTDAKPCI
partner: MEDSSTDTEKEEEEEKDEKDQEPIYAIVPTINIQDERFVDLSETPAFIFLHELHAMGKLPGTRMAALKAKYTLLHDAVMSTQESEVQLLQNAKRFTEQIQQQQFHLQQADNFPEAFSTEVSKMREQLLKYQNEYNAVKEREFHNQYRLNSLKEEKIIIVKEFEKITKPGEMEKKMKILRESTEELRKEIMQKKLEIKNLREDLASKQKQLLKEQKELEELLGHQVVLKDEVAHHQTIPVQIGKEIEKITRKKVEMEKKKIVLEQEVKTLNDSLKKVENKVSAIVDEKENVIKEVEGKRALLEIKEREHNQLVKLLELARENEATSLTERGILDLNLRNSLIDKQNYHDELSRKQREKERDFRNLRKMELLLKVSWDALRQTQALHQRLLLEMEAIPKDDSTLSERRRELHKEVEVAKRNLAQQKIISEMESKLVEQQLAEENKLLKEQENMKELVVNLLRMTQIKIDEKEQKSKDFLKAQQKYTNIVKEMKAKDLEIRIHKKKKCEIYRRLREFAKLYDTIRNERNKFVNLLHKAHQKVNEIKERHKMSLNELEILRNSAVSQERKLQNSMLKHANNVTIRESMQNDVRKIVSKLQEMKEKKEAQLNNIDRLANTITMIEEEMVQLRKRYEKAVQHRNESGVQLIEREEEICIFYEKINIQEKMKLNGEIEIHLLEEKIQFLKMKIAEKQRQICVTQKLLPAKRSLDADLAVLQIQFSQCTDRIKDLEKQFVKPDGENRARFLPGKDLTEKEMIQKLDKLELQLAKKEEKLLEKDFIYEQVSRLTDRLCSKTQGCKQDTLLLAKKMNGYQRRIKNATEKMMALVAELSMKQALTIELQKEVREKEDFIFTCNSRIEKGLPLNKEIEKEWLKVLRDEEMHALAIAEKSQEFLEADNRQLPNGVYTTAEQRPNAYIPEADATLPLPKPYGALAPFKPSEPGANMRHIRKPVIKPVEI

Variants of: B1
Conditions: with inka1_human INKA1, Q96EL1

| effect of a mutation on the interaction | Variant |
| --- | --- |
| with no effect | S511N |

Variants of: B2
Conditions: with marha_human MARCHF10, Q8NA82

| effect of a mutation on the interaction | Variant |
| --- | --- |
| with no effect | T796M |

Variants of: B3
Conditions: with zn774_human ZNF774, Q6NX45

| effect of a mutation on the interaction | Variant |
| --- | --- |
| disrupting interaction strength | L12H |

Variants of: B4
Conditions: with biea_human BLVRA

| effect of a mutation on the interaction | Variant |
| --- | --- |
| with no effect | R342H |

Variants of: B5
Conditions: with cc146_human CCDC146, Q8IYE0

| effect of a mutation on the interaction | Variant |
| --- | --- |
| with no effect | N15H |
| with no effect | E167D |
